Positions count from the first letter of the chain named.
Legend:
[1] = SEC; 24-mL Superose 12 10/30 GL column, 20 mM Tris-HCl, pH 8.0 + 0.15 M NaCl; 100-200 ug protein loaded; unstressed samples at 0.1 mM or samples stored in PBS at the indicated concentrations, temperatures and times
[2] = target: T1, rA1M (recombinant human α1-microglobulin; rA1M-wt and rA1M-035) (Homo sapiens, UniProt P02760); experiment: SPR (BIAcore X100), rA1M captured on immobilized anti-His antibody; type: binding
T1 construct: gene AMBP
T1 sequence (P02760 20-202): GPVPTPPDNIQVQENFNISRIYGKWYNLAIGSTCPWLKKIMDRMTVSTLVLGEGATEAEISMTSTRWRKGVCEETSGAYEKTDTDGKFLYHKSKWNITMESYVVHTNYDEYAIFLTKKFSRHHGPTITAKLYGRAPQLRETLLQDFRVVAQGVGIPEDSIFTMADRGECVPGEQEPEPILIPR

[3] = target: T2, rA1M (recombinant human α1-microglobulin; rA1M-wt and rA1M-035) (Homo sapiens, UniProt P02760, N115D/N36D/R85H); experiment: as above; type: binding
T2 construct: gene AMBP
T2 sequence (P02760 20-202 N36D/R85H/N115D): T1 sequence (P02760 20-202) with N17D, R66H, N96D

[4] = target: P02760; experiment: SEC; 24-mL Superose 12 10/30 GL column, 20 mM Tris-HCl, pH 8.0 + 0.15 M NaCl; 100-200 ug protein loaded; unstressed samples at 0.1 mM or samples stored in PBS at the indicated concentrations, temperatures and times

## rA1M-035, recombinant human α1-microglobulin variant with N17D, R66H and N96D
[1]
  Monomer (%): 93%

## C=CC1=C(C)C2=Cc3c(C=C)c(C)c4[n]3[Fe]([Cl])[n]3c(c(C)c(CCC(=O)O)c3=CC3=NC(=C4)C(C)=C3CCC(=O)O)=CC1=N2 [heme]
[2]
  Kd: 15.8 µM
[3]
  Kd: 4.45 µM

B1: recombinant wild-type human α1-microglobulin (rA1M-wt) (protein)
chain: GPVPTPPDNIQVQENFNISRIYGKWYNLAIGSTCPWLKKIMDRMTVSTLVLGEGATEAEISMTSTRWRKGVCEETSGAYEKTDTDGKFLYHKSKWNITMESYVVHTNYDEYAIFLTKKFSRHHGPTITAKLYGRAPQLRETLLQDFRVVAQGVGIPEDSIFTMADRGECVPGEQEPEPILIPRV
[4]
  Monomer (%): 87%

Source: PMC6338582, “rA1M-035, a Physicochemically Improved Human Recombinant α1-Microglobulin, Has Therapeutic Effects in Rhabdomyolysis-Induced Acute Kidney Injury” (Antioxidants & Redox Signaling, 2018)
